Test results: patent US20100135997A1 (MEDGENE, published 2010)
Positions count from the first letter of the chain named.

B1: SEQ ID NO 30 (receptor)
chain: MAGHLPKPTLWAEPGSVITQGSPVTLRCQGGQETQEYRLYREKKTAPWITRIPQELVKKGQFPIPSITWEHAGRYRCYYGSDTSQWSASSDPLELVVTGVYIKPTLSAQPSPVVNSGGNVTLQCDSQVAFDGFILCKEGEDEHPQCLNSQPHARGSSRAIFSVGPVSPSRRWWYRCYAYPIWTPYEWSLPSDLLELDVDG
notes: mutated soluble two domain ILT-2
B2: SEQ ID NO 38 (receptor)
chain: B1 chain with P180M, I181S, T183A
notes: as for B1
B3: SEQ ID NO 51 (receptor)
chain: B1 chain with Q20M, G21D, S22Q, P190G
notes: as for B1
B4: SEQ ID NO 47 (receptor)
chain: B1 chain with Q20M, G21D, S22Q, P180M, I181S, W182N, T183A
notes: as for B1
B5: SEQ ID NO 55 (receptor)
chain: B1 chain with Q20M, G21D, S22Q, L189S, P190G
notes: as for B1
B6: SEQ ID NO 32 (receptor)
chain: B1 chain with P180V, I181A, T183A
notes: as for B1
B7: SEQ ID NO 48 (receptor)
chain: B1 chain with Q20M, G21D, S22Q, P180D, I181S, T183A
notes: as for B1
B8: SEQ ID NO 36 (receptor)
chain: B1 chain with I181A
notes: as for B1
B9: SEQ ID NO 57 (receptor)
chain: B1 chain with Q20M, G21D, S22Q, P180D, I181S, W182N, T183S, S188T, L189R, P190G
notes: as for B1
B10: SEQ ID NO 53 (receptor)
chain: B1 chain with Q20M, G21D, S22Q, S188T, L189R, P190G
notes: as for B1
B11: SEQ ID NO 40 (receptor)
chain: B1 chain with P180M, I181S, T183S
notes: as for B1
B12: SEQ ID NO 58 (receptor)
chain: B1 chain with Q20M, G21D, S22Q, P180D, I181S, W182N, T183S, L189Q, P190M
notes: as for B1
B13: SEQ ID NO 34 (receptor)
chain: B1 chain with P180M, I181N, T183A
notes: as for B1
B14: SEQ ID NO 44 (receptor)
chain: B1 chain with Q20M, G21D, S22Q, I181A, W182Y
notes: as for B1
B15: SEQ ID NO 56 (receptor)
chain: B1 chain with Q20M, G21D, S22Q, S188T, P190G
notes: as for B1
B16: SEQ ID NO 45 (receptor)
chain: B1 chain with Q20M, G21D, S22Q, P180M, I181S, W182N, T183S
notes: as for B1
B17: SEQ ID NO 59 (receptor)
chain: B1 chain with Q20M, G21D, S22Q, P180D, I181S, W182N, T183S, L189S, P190G
notes: as for B1
B18: SEQ ID NO 54 (receptor)
chain: B1 chain with Q20M, G21D, S22Q, L189T, P190S
notes: as for B1
B19: SEQ ID NO 46 (receptor)
chain: B1 chain with Q20M, G21D, S22Q, P180D, I181S, T183S
notes: as for B1
B20: SEQ ID NO 52 (receptor)
chain: B1 chain with Q20M, G21D, S22Q, L189Q, P190M
notes: as for B1
B21: SEQ ID NO 43 (receptor)
chain: B1 chain with Q20M, G21D, S22Q, P180M, I181S, W182Y, T183S
notes: as for B1
B22: SEQ ID NO 135 (receptor)
chain: MGHLPKPTLWAEPGSVITMDQPVTLRCQGGQETQEYRLYREKKTAPWITRIPQELVKKGQFPIPSITWEHAGRYRCYYGSDTSQWSASSDPLELVVTGVYIKPTLSAQPSPVVNSGGNVTLQCDSPFIADGFILCKEGEDEHPQCLNSQPHARGSSRAIFSVGPVSPSRRWWYRCYAYMSWSPYEWSLPSDLLELDVDG
notes: as for B1
B23: SEQ ID NO 33 (receptor)
chain: MGHLPKPTLWAEPGSVITMDQPVTLRCQGGQETQEYRLYREKKTAPWITRIPQELVKKGQFPIPSITWEHAGRYRCYYGSDTAGRSESSDPLELVVTGVYIKPTLSAQPSPVVNSGGNVTLQCDSQVAFDGFILCKEGEDEHPQCLNSQPHARGSSRAIFSVGPVSPSRRWWYRCYAYVAWAPYEWSLPSDLLELDVDG
notes: as for B1
B24: SEQ ID NO 37 (receptor)
chain: B23 chain with V179P, A182T
notes: as for B1
B25: SEQ ID NO 31 (receptor)
chain: B23 chain with V179P, A180I, A182T
notes: as for B1
B26: SEQ ID NO 35 (receptor)
chain: B23 chain with V179M, A180N
notes: as for B1
B27: SEQ ID NO 39 (receptor)
chain: B23 chain with V179M, A180S
notes: as for B1
B28: SEQ ID NO 134 (receptor)
chain: B22 chain with I128V, A129S
notes: as for B1
B29: SEQ ID NO 131 (receptor)
chain: B22 chain with I128Q
notes: mutated soluble two domain ILT-2; also called c132
B30: SEQ ID NO 41 (receptor)
chain: B23 chain with V179M, A180S, A182S
notes: as for B1
B31: SEQ ID NO 133 (receptor)
chain: B22 chain with I128L, A129S, R170K
notes: as for B1
B32: SEQ ID NO 136 (receptor)
chain: B22 chain with P126M, I128L, A129V
notes: as for B1
B33: SEQ ID NO 130 (receptor)
chain: B22 chain with F127W, I128L
notes: as for B1
B34: SEQ ID NO 128 (receptor)
chain: B22 chain with F127W, I128V
notes: as for B1
B35: SEQ ID NO 123 (receptor)
chain: B22 chain with E35Q, S83R, P126Q, F127V, I128A, A129F, E141D, W172R, M179D, W181N
notes: mutated soluble two domain ILT-2; also called Clone 64; c64
B36: SEQ ID NO 129 (receptor)
chain: B22 chain with I128L, A129T
notes: as for B1
B37: SEQ ID NO 132 (receptor)
chain: B22 chain with D130E
notes: as for B1
B38: SEQ ID NO 66 (receptor)
chain: MHLPKPTLWAEPGSVITMDQPVTLRCQGGQETQEYRLYREKKTAPWITRIPQELVKKGQFPIPSITWEHAGRYRCYYGSDTSQWSASSDPLELVVTGVYIKPTLSAQPSPVVNSGGNVTLQCDSQVAFDGFILCKEGEDEHPQCLNSQPHARGSSRAIFSVGPVSPSRRWWYRCYAYDSNSPYEWSLPSDLLELDVDG
notes: as for B1
B39: SEQ ID NO 28 (receptor)
chain: B38 chain with M18L, D19Q, Q20S, E34Q, S82R, E140D, W171R, D178M, N180W, S181A
notes: as for B1
B40: SEQ ID NO 25 (receptor)
chain: MHLPKPTLWAEPGSVITLQSPVTLRCQGGQETQQYRLYREKKTAPWITRIPQELVKKGQFPIPSITWEHAGRYRCYYGSDTRQWSASSDPLELVVTGVYIKPTLSAQPSPVVNSGGNVTLQCDSQVAFDGFILCKEGEDDHPQCLNSQPHARGSSRAIFSVGPVSPSRRWRYRCYAYVAWAPYEWSLPSDLLELDVDG
notes: as for B1
B41: SEQ ID NO 6 (receptor)
chain: B40 chain with V178D, A179S, W180N, A181S
notes: as for B1
B42: SEQ ID NO 42 (receptor)
chain: B40 chain with V22L, V178D, A179S, W180N, A181S
notes: as for B1
B43: SEQ ID NO 29 (receptor)
chain: B40 chain with V178M, A179S, A181S
notes: as for B1
B44: SEQ ID NO 50 (receptor)
chain: B40 chain with V22L, V178M, A179S
notes: as for B1
B45: SEQ ID NO 27 (receptor)
chain: B40 chain with V178P, A181T
notes: as for B1
B46: SEQ ID NO 26 (receptor)
chain: B40 chain with V178M, A179N
notes: as for B1
B47: SEQ ID NO 49 (receptor)
chain: B40 chain with V22L, V178M, A179S, A181S
notes: as for B1
B48: SEQ ID NO 110 (receptor)
chain: B38 chain with W171R
notes: as for B1
B49: SEQ ID NO 24 (receptor)
chain: B40 chain with V178P, A179I, A181T
notes: as for B1

Biological target: T1, HLA-A*0201 loaded with the Carcinoembryonic antigen (CEA)-derived … peptide (biotin on the C-terminal biotinylation tag)
T1 construct: Soluble, biotinylated, immobilised on a streptavidin chip
Assay: Biacore SPR
How it was run: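 pMHC complexes were immobilised in SPR flow cells through biotin-tag binding. Soluble ILT-like molecule was passed over the surfaces at constant flow rate and response recorded in RU for affinity and kinetic analysis.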

Kd [µM] | koff [s⁻¹] | Binder
≤ 1 | ≤ 2 | B1
≤ 1 | ≤ 2 | B2
≤ 1 | ≤ 2 | B3
≤ 1 | ≤ 2 | B4
≤ 1 | ≤ 2 | B5
≤ 1 | ≤ 2 | B6
≤ 1 | ≤ 2 | B7
≤ 1 | ≤ 2 | B8
≤ 1 | ≤ 2 | B9
≤ 1 | ≤ 2 | B10
≤ 1 | ≤ 2 | B11
≤ 1 | ≤ 2 | B12
≤ 1 | ≤ 2 | B13
≤ 1 | ≤ 2 | B14
≤ 1 | ≤ 2 | B15
≤ 1 | ≤ 2 | B16
≤ 1 | ≤ 2 | B17
≤ 1 | ≤ 2 | B18
≤ 1 | ≤ 2 | B19
≤ 1 | ≤ 2 | B20
≤ 1 | ≤ 2 | B21
≤ 1 | ≤ 2 | B22
≤ 1 | ≤ 2 | B23
≤ 1 | ≤ 2 | B24
≤ 1 | ≤ 2 | B25

Kd [µM] | koff [s⁻¹] | Binder
≤ 1 | ≤ 2 | B26
≤ 1 | ≤ 2 | B27
≤ 1 | ≤ 2 | B28
≤ 1 | ≤ 2 | B29
≤ 1 | ≤ 2 | B30
≤ 1 | ≤ 2 | B31
≤ 1 | ≤ 2 | B32
≤ 1 | ≤ 2 | B33
≤ 1 | ≤ 2 | B34
≤ 1 | ≤ 2 | B35
≤ 1 | ≤ 2 | B36
≤ 1 | ≤ 2 | B37
≤ 1 | ≤ 2 | B38
≤ 1 | ≤ 2 | B39
≤ 1 | ≤ 2 | B40
≤ 1 | ≤ 2 | B41
≤ 1 | ≤ 2 | B42
≤ 1 | ≤ 2 | B43
≤ 1 | ≤ 2 | B44
≤ 1 | ≤ 2 | B45
≤ 1 | ≤ 2 | B46
≤ 1 | ≤ 2 | B47
≤ 1 | ≤ 2 | B48
≤ 1 | ≤ 2 | B49
